Experimental data: article PMC3001067 (Nucleic Acids Research, 2010)
Where a chain is given by its changes, count along the chain named. Names and notes keep the numbering of the source.

Tests used:
[1] = molecular target: Thermus aquaticus RNAP β-subunit β1 domain (Taq β 17–139 –Gly–Gly– 334–395) (Thermus aquaticus) (UniProt Q9KWU7); assay: crystal structure
[2] = molecular target: Tth RNAP-β1 Q99R (Tth RNAP β-subunit residues 10–133), two-hybrid fusion (Thermus thermophilus) (UniProt Q8RQE9); assay: two-hybrid
[3] = molecular target: Eco RNAP β-subunit residues 19–142 (Eco RNAP-β1), two-hybrid fusion (Escherichia coli) (UniProt P0A8V2); assay: two-hybrid
[4] = molecular target: Tth RNAP β-subunit residues 10–133 (Tth RNAP-β1), two-hybrid fusion (Thermus thermophilus) (UniProt Q8RQE9); assay: two-hybrid
[5] = molecular target: T1, Tth RNAP-β1 Q99R (Tth RNAP β-subunit residues 10–133), two-hybrid fusion (Thermus thermophilus, UniProt Q8RQE9 10-133, Q99R); assay: two-hybrid
T1 sequence (looked up): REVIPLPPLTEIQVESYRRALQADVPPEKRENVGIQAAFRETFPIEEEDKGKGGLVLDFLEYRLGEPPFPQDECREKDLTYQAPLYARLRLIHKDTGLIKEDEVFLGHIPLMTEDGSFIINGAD

[6] = molecular target: Eco RNAP β-subunit residues 19–142 (Eco RNAP-β1), two-hybrid fusion (Escherichia coli, UniProt P0A8V2 19-142); assay: two-hybrid

Molecule: Thermus thermophilus HB27 TRCF RNAP interacting domain (Tth TRCF–RID, residues 321–387) (domain or fragment)
- stoichiometry N [1]: 1

Molecule: Tth TRCF residues 314–444 (Tth TRCF–RID), two-hybrid fusion (domain or fragment)
- fold defect of the two-hybrid signal against wild-type Tth RNAP-β1 [2]: 2 fold

Molecule: Tth TRCF–RID R341L (Tth TRCF residues 314–444), two-hybrid fusion (domain or fragment)
- fold change of the two-hybrid signal against wild-type Tth TRCF–RID [3]: 2 fold
- fold defect of the two-hybrid signal against wild-type Tth TRCF–RID [4]: 2 fold

B1: Eco TRCF residues 472–603 (Eco TRCF–RID), two-hybrid fusion (domain or fragment, Escherichia coli, UniProt P30958 472-603, looked up)
chain: RNLAELHIGQPVVHLEHGVGRYAGMTTLEAGGITGEYLMLTYANDAKLYVPVSSLHLISRYAGGAEENAPLHKLGGDAWSRARQKAAEKVRDVAAELLDIYAQRAAKEGFAFKHDREQYQLFCDSFPFETTP
- fold change of the two-hybrid signal against wild-type Tth RNAP-β1 [5]: ~2 fold

B2: Eco TRCF–RID L499R (Eco TRCF residues 472–603), two-hybrid fusion (domain or fragment, Escherichia coli, UniProt P30958 472-603, looked up)
chain: B1 chain with L28R
- fold defect of the two-hybrid signal against wild-type Eco TRCF–RID [6]: ~10 fold
